{"source": "patent US20200368258A1", "about": "(NORTHWESTERN UNIVERSITY, published 2020)", "binders": {"B1": {"name": "FITC-labeled peptide probe with three tandem PY motif binding units derived from the p2 region of ASLV gag (SEQ ID NO:18) (peptide)", "peptide": "{FITC}-ATASAPPPYVGSGGGATASAPPPYVGSGGGATASAPPPYVGSGGGRRR", "notes": "Synthetic peptide (Biosynthesis, TX); also called FITC-peptide; FTIC-peptide"}}, "biological_target": "T1, WWP2 recombinant protein (SEQ ID NO:24) (Homo sapiens (Human), UniProt O00308 1-870)", "T1 construct": "It was expressed with a pET28b His-tag/thrombin leader; also called WWP2 polypeptide; Nedd4 WWP2", "T1 sequence (O00308 other isoform, or with tags, fused parts or gaps limits assumed)": "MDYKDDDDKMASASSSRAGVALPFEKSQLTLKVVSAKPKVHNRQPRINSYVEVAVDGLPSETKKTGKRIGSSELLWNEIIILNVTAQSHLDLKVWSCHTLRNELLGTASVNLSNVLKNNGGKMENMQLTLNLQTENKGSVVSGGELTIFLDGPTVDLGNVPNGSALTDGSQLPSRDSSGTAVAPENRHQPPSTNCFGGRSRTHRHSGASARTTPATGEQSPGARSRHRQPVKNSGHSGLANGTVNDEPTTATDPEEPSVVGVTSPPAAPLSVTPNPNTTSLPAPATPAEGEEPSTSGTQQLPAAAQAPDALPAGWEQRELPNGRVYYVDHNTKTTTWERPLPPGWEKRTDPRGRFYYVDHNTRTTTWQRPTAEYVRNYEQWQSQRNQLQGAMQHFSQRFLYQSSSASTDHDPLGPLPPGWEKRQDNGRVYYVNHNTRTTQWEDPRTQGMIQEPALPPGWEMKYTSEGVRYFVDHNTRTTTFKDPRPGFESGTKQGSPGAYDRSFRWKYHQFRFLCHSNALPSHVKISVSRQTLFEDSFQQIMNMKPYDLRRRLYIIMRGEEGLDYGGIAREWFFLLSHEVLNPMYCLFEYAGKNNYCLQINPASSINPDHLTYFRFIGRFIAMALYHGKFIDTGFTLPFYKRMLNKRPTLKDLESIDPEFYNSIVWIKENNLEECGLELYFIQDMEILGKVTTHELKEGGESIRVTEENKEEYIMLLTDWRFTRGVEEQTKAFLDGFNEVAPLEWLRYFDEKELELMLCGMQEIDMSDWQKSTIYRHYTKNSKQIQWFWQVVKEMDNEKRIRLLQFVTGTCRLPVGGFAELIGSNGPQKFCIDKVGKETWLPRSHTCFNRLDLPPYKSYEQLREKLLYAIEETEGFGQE", "assay": "fluorescence polarization, WWP2 dose-response up to 19.6 µM, FITC-peptide probe at 5 nM", "note": "No end group written: not given here. *: point of attachment. FITC = O=C1OC2(c3ccc(O)cc3Oc3cc(O)ccc32)c2ccc(NC(=S)*)cc21"}
{"binder": "B1", "values": [{"measurement": "Kd", "value": 200, "unit": "nM"}]}
